The values that follow come from PMC10069731 (2023).

Usually Kd stands for the free concentration of one partner at which half of the binding sites on the other are occupied at equilibrium, for simple one-to-one binding. Lower therefore signals tighter binding.

For this test, the target named is SARS-CoV-2 WT RBD (SARS-CoV-2, UniProt P0DTC2). The test can be described thus: BLI. (Biolayer interferometry detects binding as a change in optical thickness at a sensor tip.)

B1: rabbit monoclonal antibody (RmAb) 1H1, IgG (antibody, V domains shown)
VH: QSLEESGGDLVKPGASLTLTCTASGFSFSSGYDMCWVRQAPGKGLEWIACIGTGSSGNIYYASWAKGRFTISKTSSTTVTLQMTSLTAADTATYFCARDDADYAGPDYFNLWGPGTLVTVSS
VL: DIVMTQTPASVSEPVGGTVTIKCQASESISNWLAWYQQKPGQPPKLLIYAAFTLASGVPSRFKGSGSGTQFTLTINGVECADAATYYCQQTYSSRDVDNVFGGGTEVVVK
B1 showed a Kd of 0.0898 nM.
